Reference: paper PMC9943680 (Nucleic Acids Research, 2023)
Positions count from the first letter of the chain named.

How the values were obtained:
[1] = biological target: T1, TR4_(341–596), ligand-binding domain of human testicular receptor 4 (human, UniProt P49116 341-596); experiment: crystal structure
T1 sequence (looked up): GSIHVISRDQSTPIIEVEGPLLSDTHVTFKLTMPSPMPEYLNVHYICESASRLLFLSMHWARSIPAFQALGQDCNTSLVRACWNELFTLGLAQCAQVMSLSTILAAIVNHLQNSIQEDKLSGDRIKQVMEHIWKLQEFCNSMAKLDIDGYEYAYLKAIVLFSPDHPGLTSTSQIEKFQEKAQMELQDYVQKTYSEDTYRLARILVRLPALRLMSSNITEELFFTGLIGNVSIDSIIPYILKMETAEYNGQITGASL

TR4DBD = biological target: T2, TR4DBD (Homo sapiens, UniProt P49116 113-189); experiment: MST
T2 sequence: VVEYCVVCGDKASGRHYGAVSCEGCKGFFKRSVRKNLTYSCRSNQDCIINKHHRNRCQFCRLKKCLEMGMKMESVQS

TR4DBD-CTE S189A = biological target: T3, TR4DBD-CTE S189A (Homo sapiens, UniProt P49116 113-200, S189A); experiment: MST
T3 sequence: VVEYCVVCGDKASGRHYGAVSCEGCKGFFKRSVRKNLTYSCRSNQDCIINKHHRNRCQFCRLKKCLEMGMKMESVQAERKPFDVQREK

TR4DBD-CTE R168A = biological target: T4, TR4DBD-CTE R168A (Homo sapiens, UniProt P49116 113-200, R168A); experiment: MST
T4 sequence: T3 sequence with R56A, A77S

TR4DBD-CTE R191A = biological target: T5, TR4DBD-CTE R191A (Homo sapiens, UniProt P49116 113-200, R191A); experiment: MST
T5 sequence: T3 sequence with A77S, R79A

TR4DBD-CTE R127C = biological target: T6, TR4DBD-CTE R127C (Homo sapiens, UniProt P49116 113-200, R127C); experiment: MST
T6 sequence: T3 sequence with R15C, A77S

TR4DBD-CTE N167K = biological target: T7, TR4DBD-CTE N167K (Homo sapiens, UniProt P49116 113-200, N167K); experiment: MST
T7 sequence: T3 sequence with N55K, A77S

**Q.** Does QQPTYVALSYINRFMTDAARREQES (domain or fragment, human, UniProt Q86VZ6 51-75, looked up) [JAZF1_(51–75)] bind [1]?
**A.** binds

B1: 18 bp DR1 (dsDNA)
DNA 1: GGCAGAGGTCAAAGGTCA
DNA 2: CTGACCTTTGACCTCTGC
**Q.** B1 was tested. Which Kd (TR4DBD) did it give?
**A.** 38.3 µM

B2: idRE, 23 bp DR1 (dsDNA)
DNA 1: GGCAGAGGTCAAAGGTCAAACGT
DNA 2: ACGTTTGACCTTTGACCTCTGCC
**Q.** With B2 as the binder, how does the binding signal (TR4DBD-CTE S189A) read?
**A.** 12 fold decrease vs WT

**Q.** And the binding signal (TR4DBD-CTE R168A)?
**A.** 12 fold decrease vs WT

**Q.** And the binding signal (TR4DBD-CTE R191A)?
**A.** ~60 fold decrease vs WT

**Q.** What about the binding signal (TR4DBD-CTE R127C) of the same binder?
**A.** ~280 fold increase vs WT

**Q.** And the binding signal (TR4DBD-CTE N167K)?
**A.** > 60 fold increase vs WT
